The values below come from patent US9976167B2, “Group of glycosyltransferases and use thereof” (Shanghai Institutes For Biological Sciences, Chinese …, priority 2012, dated 2018).

Holding throughout (type): biochemical
Data set [1] is described as follows: Glycosyltransfering activities on ginsengenins and saponins: glycosylation site and specificity (summary). The settings on record: Table 2, tetracyclic triterpenoid substrates. On the procedure: More than 100 predicted cDNA sequences of glycosyltransferases were extracted from the published expression profile data of the Panax plant. 60 cDNAs with full length were cloned, expressed, and subjected to the analysis of glycosyltransfering reaction.
(§1) The lysate supernatant of the recombinant yeasts expressing the empty vector was used as control.
(§2) The reaction was conducted under 35° C. for 12 hrs, then stopped by adding 100 μL of butanol. The product were extracted, dried in vacuum, and dissolved in methanol.
The glycosyltransfering reactions of ginsenosides and ginsengenins were catalyzed by using the lysis supernatant of the recombinant yeasts expressing 3GT1, 3GT2, 3GT3 and 3GT4 as crude enzymes. The lysis supernatant of recombinant E. coli expressing empty vectors was used as control. The 100 μL reaction system is shown as Table 3. The reaction was conducted under 35° C. for 12 hrs, then stopped by adding 100 μL of butanol. The product were extracted, dried in vacuum, and dissolved in methanol.
(§3) The lysate supernatant of the recombinant yeast expressing empty vectors was used as control. The reaction was conducted under 35° C. for 12 hrs, and then stopped by adding 100 μL of butanol. The product were extracted, dried in vacuum, and dissolved in methanol.
(§4) The glycosyltransfering reactions of ginsenosides Rh2 and F2 were catalyzed by using the lysate supernatant of the recombinant yeasts expressing 3GT1, 3GT2, 3GT3 and 3GT4 as crude enzymes. The 100 μL reaction system is shown as Table 3. The reaction was conducted under 35° C. for 12 hrs, and then stopped by adding 100 μL of butanol. The product were extracted, dried in vacuum, and dissolved in methanol.

A short description of data set [2]: Glycosyltransfering reaction with crude enzyme, substrate F2. The settings on record: 35° C., 12 hrs, TLC; for extension of C3 glycosyl of F2 by one more glycosyl (product Rd): crude enzymes of Example 21 (E. coli expression products). On the procedure:
According to the method as in Example 4, the cell lysate of recombinant yeasts expressing gGT13 and gGT30 were used to catalyze PPD and PPT.
as §3, §4

Data set [3] can be described thus: Glycosyltransfering reaction with crude enzyme, substrate Rh2. The conditions noted are these: crude enzymes of Example 21 (E. coli expression products); 35° C., 12 hrs; TLC.
Experiment in data set [4]: as above
The conditions noted are these: crude enzyme: lysate supernatant of recombinant yeast; 35° C., 12 hrs; TLC. How it is done: as §1, §2
The reaction products were first detected by thin layer chromatography (TLC). […]
as §3, §4

B1: gGT29-5: glycosyltransferase protein with 446 amino acids, SEQ ID NO.: 57 (protein)
chain: MDNQKGRISIVMLPFLAHGHISPFFELAKHLSKRNCNIFLCSTPINLSSIKNRISDKDSSASIKLVELHLPSSPDLPPHYHTTNGLPSHLMVPLRNAFETAAPTFSEILKTLNPDLLIYDFNPSWAPEIASSHNIPAVCFIIGGAASFSMSLHSFKNPGEKYPFLDFDDNSNITPEPPSADNMKLLLDFMTCFERSCDIILIKSFRELEGKYIDLLSTLSDKTLVPVGPLVQDPMGHNEDPKTEQIINWLDKRAESTVVFVCFGSEYFLSNEELEEVAIGLEISMVNFIWAVRLIEGEKKGVLPEGFVQRVGDRGLVVEGWAPQARILGHSSTGGFVSHCGWSSIAESMKFGVPVIAMARHLDQPLNGKLAAEVGVGMEVVRDENGKYKREGIAEVIRKVVVEKSGEVIRRKARELSEKMKEIGEQLIDRAVEELVQICKKKKDEQ
modifications: Panax ginseng; gGT29-5
B1: in data set [1], the “glycosylation site: The first glycosyl at C-3” value (“glycosylation site” below) is given as “✓”. The “extension of C3 glycosyl of F2 by one more glycosyl (product Rd)” value (“extension of C3 glycosyl of F2” below) in data set [2] is “could be extended by one more glycosyl”. The “extension of C3 glycosyl of Rh2 by one more glycosyl (product Rg3)” value (shortened to “extension of C3 glycosyl of Rh2”) in data set [3] was “could not be catalyzed”.

B2: gGT29-3: glycosyltransferase protein with 442 amino acids, SEQ ID NO.: 28 (protein)
chain: MDNQEGRISIALLPFLAHGHISPFFELAKQLAKRNCNVFLCSTPINLSSIKNKDSSASIKLVELHLPSSPDLPPHYHTTNGLPSHLMVPLINAFETAGPTFSEILKTLNPDLLIYDFNPSWAPEIASSHNIPAVYFLTTAAASSSIGLHAFKNPGEKYPFPDFYDNSNNTPEPPSADNMKLLHDFIACFERSCDIILIKSFIELEGKYIDLLSTLSDKTLVPVGPLVQDPMGHNEDPKTEQIINWLDKRAESTVVFVCFGSEYFLSNEELEEVAIGLEISMVNFIWAVRLIEGEKKGVLPEGFVQRVGDRGLVVEGWAPQARILGHSSTGGFVSHCGWSSIAESMKFGVPVIAMARHLDQPLNGKLAAEVGVGMEVVRDENGKYKREGIAEVIRKVVVEKSGEVMRRKARELSEKMKEKGEEEIDRAVEELVQICKKKKDAQ
modifications: Panax ginseng; gGT29-3
Turning to B2, in data set [1], the “glycosylation site” value is reported as “✓”. Moreover, the “extension of C3 of F2 by one more glycosyl (product Rd)” value in data set [2] (crude enzyme: lysate supernatant of recombinant yeast) is reported as “could be extended by one more glycosyl”. Also, the “extension of C3 of Rh2 by one more glycosyl (product Rg3)” value in data set [4] is “could be extended by one more glycosyl”.

B3: gGT29-6: glycosyltransferase protein with 446 amino acids, SEQ ID NO.: 59 (protein)
chain: MDNQKGRISIVMLPFLAHGHISPFFELAKHLSKRNCNIFLCSTPINLSSIKNRISDKDSSASIKLVELHLPSSPDLPPHYHTTNGLPSHLMVPLRNAFETAAPTFSEILKTLNPDLLIYDFNPSWAPEIASSHNIPAVYFLTTAAASSSIGLHAFKNPGEKYPFPDFYDNSNNTPEPPSADNMKLLHDFIACFERSCDIILIKSFIELEGKYIDLLSTLSDKTLVPVGPLVQDPMGHNEDPKTEQIINWLDKRAESTVVFVCFGSEYFLSNEELEEVAIGLEISMVNFIWAVRLIEGEKKGVLPEGFVQRVGDRGLVVEGWAPQARILGHSSTGGFVSHCGWSSIAESMKFGVPVIAMARHLDQPLNGKLAAEVGVGMEVVRDENGKYKREDIAGVIRKVVVEKSGEVIRRKARELSEKMKEIGEQLIDRAVEELVQICKKKKDEQ
modifications: Panax ginseng; gGT29-6
Take B3: the “glycosylation site” value in data set [1] is “✓”. Further, the “extension of C3 glycosyl of F2” value in data set [2] was “could be extended by one more glycosyl”. For the same molecule, the “extension of C3 glycosyl of Rh2” value in data set [3] was “could be extended by one more glycosyl”.

B4: gGT29-4: glycosyltransferase protein with 446 amino acids, SEQ ID NO.: 55 (protein)
chain: MDNQKGRISIALLPFLAHGHISPFFELAKHLSKRNCNIFLCSTPINLSSIKNRISDKDSSASIKLVELHLPSSPDLPPHYHTTNGLPSHLMVPLRNAFETAAPTFSEILKTLNPDLLIYDFNPSWAPEIASSHNIPAVCFIIGGAASFSMSLHSFKNPGEKYPFLDFDDNSNITPEPPSADNMKLLLDFMTCFERSCDIILIKSFRELEGKYFDFYSTLSDKTLVPVGPLVQDPMGHNEDPKTEQFINWLDKRAESTVVFVCFGSEYFLSNEELEEVAIGLEISMVNFIWAVRLIEGEKKGVLPEGFVQRVGDRGLVVEGWAPQARILGHSSTGGFVSHCGWSSITESMKFGVPVIAMARHLDQPLNGKLAAEVGVGMEVVRDENGKYKREGIAEVIRKVVVEKSGEVMRRKARELSEKMKEKGEEEIDRAVEELVQICKKKKDEQ
modifications: Panax ginseng; gGT29-4
On to B4, for which the “glycosylation site” value in data set [1] is “✓”. For the same molecule, the “extension of C3 glycosyl of F2” value in data set [2] is “could be extended by one more glycosyl”. Also, in data set [3], the “extension of C3 glycosyl of Rh2” value was “could not be catalyzed”.

B5: gGT29-7: glycosyltransferase protein with 446 amino acids, SEQ ID NO.: 61 (protein)
chain: MDNQKGRISIALLPFLAHGHISPFFELAKQLAKRNCNVFLCSTPINLSSIKNRVSDKDSSASIKLVELHLPSSPDLPPHYHTTNGLPSHLMIPLRNAFDTAGPTFSEILKTLNPDLLIYDFNPSWAPEIASSHNIPAVCFIIGGAASSSMSLHSFKNPGEKYPFLDFDDNSNITPEPPSADNMKLLINFMTCFERSCDIILIKSFRELEGKYFDFFSTLSDKTLVPVGPLVQDPMGHNEDPKTEQFINWLDKRAESTVVFVCFGSECFLSNEELEEVAIGLEISMVNFIWAVRLIEGEKKGVLPEGFVQRVGDRGLVVEEWAPQARILGHSSTGGFVSHCGWNSITESMKFGVPVIAMARHFDQPLNGKLAAEVGVGMEVVRDENGKYKREGIAEVIRKVVVEKSGEVIRRKARELSEKMKEKGEQEIDRVVEELVQICKKKKDEQ
modifications: Panax ginseng; gGT29-7
For the molecule B5, in data set [1], the “glycosylation site” value was “✓”. The “extension of C3 glycosyl of F2” value in data set [2] was “could be extended by one more glycosyl”. The “extension of C3 glycosyl of Rh2” value in data set [3] is listed as “could not be catalyzed”.
